From patent EP4365192A1

Legend:
[1] = biological target: Recombinant Human FGFR1 alpha (IIIc) Fc Chimera Protein (R&D systems, 658-FR-050) (human) (UniProt P11362); assay: ELISA: FGFR1 alpha (IIIc)-Fc coated at 0.5 ug/ml; FGF sample at 80 ng/mL after 0 h at 37°C; detected with biotinylated anti-FGF antibody BAM233 and streptavidin-HRP; blank subtracted
[2] = biological target: Recombinant Human FGFR1 alpha (IIIc) Fc Chimera Protein (R&D systems, 658-FR-050) (human) (UniProt P11362); assay: ELISA: FGFR1 alpha (IIIc)-Fc coated at 0.5 ug/ml; FGF sample at 80 ng/mL after 6 h at 37°C; detected with biotinylated anti-FGF antibody BAM233 and streptavidin-HRP; blank subtracted
[3] = biological target: Recombinant Human FGFR1 alpha (IIIc) Fc Chimera Protein (R&D systems, 658-FR-050) (human) (UniProt P11362); assay: ELISA: FGFR1 alpha (IIIc)-Fc coated at 0.5 ug/ml; FGF sample at 80 ng/mL after 24 h at 37°C; detected with biotinylated anti-FGF antibody BAM233 and streptavidin-HRP; blank subtracted
[4] = biological target: Recombinant Human FGFR1 alpha (IIIc) Fc Chimera Protein (R&D systems, 658-FR-050) (human) (UniProt P11362); assay: ELISA: FGFR1 alpha (IIIc)-Fc coated at 0.5 ug/ml; FGF sample at 80 ng/mL after 48 h at 37°C; detected with biotinylated anti-FGF antibody BAM233 and streptavidin-HRP; blank subtracted

Chain of Recombinant Human FGFR1 alpha (IIIc) Fc Chimera Protein (R&D systems, 658-FR-050) (human) (P11362 22-376, change not shown): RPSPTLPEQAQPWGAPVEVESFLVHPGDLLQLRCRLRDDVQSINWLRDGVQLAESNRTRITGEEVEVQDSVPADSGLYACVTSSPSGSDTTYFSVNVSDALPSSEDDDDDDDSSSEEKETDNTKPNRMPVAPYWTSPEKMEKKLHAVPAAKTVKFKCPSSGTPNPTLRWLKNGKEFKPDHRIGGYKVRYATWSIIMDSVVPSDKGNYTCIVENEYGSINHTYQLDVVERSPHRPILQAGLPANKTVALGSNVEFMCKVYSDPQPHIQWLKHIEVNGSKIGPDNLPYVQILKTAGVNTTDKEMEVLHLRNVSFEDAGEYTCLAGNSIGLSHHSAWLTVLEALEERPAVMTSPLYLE

Absorbance (450 nm) (absorbance (450 nm)) [1]: 2.3 | Absorbance (450 nm) (absorbance (450 nm)) [2]: 2.1 | Absorbance (450 nm) (absorbance (450 nm)) [3]: 1.5 | Absorbance (450 nm) (absorbance (450 nm)) [4]: 0.8
Substance: FGF301 (FGF2_native_Pig) (from UniProt P03969 10-155) (ligand)
